Changes are numbered by the printed parent chain.
Key:
[1] = target: N2 A/shorebird/Delaware/127/1997 (Influenza A virus (A/shorebird/Delaware/127/1997))
[2] = target: NA (N2) of influenza virus A/Brisbane/10/2007 (influenza A virus A/Brisbane/10/2007 (H3N2))
[3] = target: NA (N2) of influenza virus A/Wisconsin/67/2005 (influenza A virus A/Wisconsin/67/2005 (H3N2))
[4] = target: NA (N2) of influenza virus A/Brisbane/10/2007 (influenza A virus A/Brisbane/10/2007 (H3N2)); experiment: cell-based or functional assay
[5] = target: NA (N2) of influenza virus A/Perth/16/2009 (influenza A virus A/Perth/16/2009 (H3N2)); experiment: cell-based or functional assay
[6] = target: NA (N2) of influenza virus A/Texas/50/2012 (influenza A virus A/Texas/50/2012 (H3N2)); experiment: cell-based or functional assay
[7] = target: NA (N2) of influenza virus A/Uruguay/716/2007 (influenza A virus A/Uruguay/716/2007 (H3N2)); experiment: cell-based or functional assay
[8] = target: NA (N2) of influenza virus A/Victoria/361/2011 (influenza A virus A/Victoria/361/2011 (H3N2)); experiment: cell-based or functional assay
[9] = target: NA (N2) of influenza virus A/Wisconsin/67/2005 (influenza A virus A/Wisconsin/67/2005 (H3N2)); experiment: cell-based or functional assay
[10] = target: H1 protein
[11] = target: H3 A/duck/Shantou/1283/2001 (Influenza A virus (A/duck/Shantou/1283/2001))
[12] = target: H7 protein
[13] = target: HA (H3) of influenza virus A/Brisbane/10/2007 (influenza A virus A/Brisbane/10/2007 (H3N2))
[14] = target: HA (H3) of influenza virus A/Perth/16/2009 (influenza A virus A/Perth/16/2009 (H3N2))
[15] = target: HA (H3) of influenza virus A/Wisconsin/67/2005 (influenza A virus A/Wisconsin/67/2005 (H3N2))
[16] = target: HA (H3) of influenza virus A/Brisbane/10/2007 (influenza A virus A/Brisbane/10/2007 (H3N2)); experiment: cell-based or functional assay
[17] = target: HA (H3) of influenza virus A/Perth/16/2009 (influenza A virus A/Perth/16/2009 (H3N2)); experiment: cell-based or functional assay
[18] = target: HA (H3) of influenza virus A/Switzerland/9715283/2013 (influenza A virus A/Switzerland/9715283/2013 (H3N2)); experiment: cell-based or functional assay
[19] = target: HA (H3) of influenza virus A/Texas/50/2012 (influenza A virus A/Texas/50/2012 (H3N2)); experiment: cell-based or functional assay
[20] = target: HA (H3) of influenza virus A/Uruguay/716/2007 (influenza A virus A/Uruguay/716/2007 (H3N2)); experiment: cell-based or functional assay
[21] = target: HA (H3) of influenza virus A/Victoria/210/2009 (influenza A virus A/Victoria/210/2009 (H3N2)); experiment: cell-based or functional assay
[22] = target: HA (H3) of influenza virus A/Victoria/361/2011 (influenza A virus A/Victoria/361/2011 (H3N2)); experiment: cell-based or functional assay
[23] = target: HA (H3) of influenza virus A/Wisconsin/67/2005 (influenza A virus A/Wisconsin/67/2005 (H3N2)); experiment: cell-based or functional assay

B1: 1122A11 hmAb (antibody, V domains shown)
VH: QVQLVQSGAEVSKPGASVKVSCKASGYSFTSQSLGWVRQAPGQGLEWMGIINPSGGITNYAHKFQGRVTMTRDTSTSTVYMELSSLRSEDTALYYCVRDLSHYNEVGHDRAYYYGMDIWGQGTTVTVSS
VL: SYELIQPPSVSVSPGQTASITCSGDKLGKKYTCWYQQKPGQSPVLVIYQDNKRPSGIPERFSGSNSGNTATLTISGTQAMDEADYYCQAWDSSAVVFGGGTKLTVL
For B1, which ELISA area under curve (AUC) [1] is on record?
The ELISA area under curve (AUC) was 15.2.

And the ELISA area under curve (AUC) [2]?
The ELISA area under curve (AUC) was 35.8.

What about the ELISA area under curve (AUC) [3] of the same binder?
Its ELISA area under curve (AUC) is 34.7.

And the NT50 [4]?
Its NT50 is 6.25 µg/mL.

And the NT50 [5]?
Its NT50 is 0.2 µg/mL.

What about the NT50 [6] of the same binder?
The NT50 was 3.13 µg/mL.

What about the NT50 [7] of the same binder?
The NT50 was 0.2 µg/mL.

And the NT50 [8]?
The NT50 was 1.6 µg/mL.

And the NT50 [9]?
The NT50 was 25 µg/mL.

B2: 1092E4 hmAb (antibody, V domains shown)
VH: QVQLVQSGAEVKKPGASVKVSCKASGYSFTRYGISWVRQAPGQGLEWMGWISAYTGNTDYAQKFQGRITMTTDTSTSTVYMELRSLRSDDTAVYYCARDHPQGVVILGSYYYGMDVWGQGNTVTVSS
VL: EIVLTQSPGTLSLSPGERATLSCRASQSVTSRYLAWYQQKLGQAPRLLIYGASSRATGIPDRFSGSGSGTDFTLTISSLEPEDFAVYYCQQSGSPRTFGQGTKVEIK
B2 was tested. Which ELISA area under curve (AUC) [10] did it give?
Its ELISA area under curve (AUC) is 18.5.

And the ELISA area under curve (AUC) [11]?
The ELISA area under curve (AUC) was 28.7.

What about the ELISA area under curve (AUC) [12] of the same binder?
The ELISA area under curve (AUC) was 26.

What about the ELISA area under curve (AUC) [13] of the same binder?
The ELISA area under curve (AUC) was 31.7.

What about the ELISA area under curve (AUC) [14] of the same binder?
The ELISA area under curve (AUC) was 33.4.

And the ELISA area under curve (AUC) [15]?
Its ELISA area under curve (AUC) is 32.5.

What about the NT50 [16] of the same binder?
The NT50 was 0.1 µg/mL.

What about the NT50 [17] of the same binder?
Its NT50 is 3.13 µg/mL.

What about the NT50 [18] of the same binder?
The NT50 was 6.25 µg/mL.

What about the NT50 [19] of the same binder?
The NT50 was 6.25 µg/mL.

What about the NT50 [20] of the same binder?
The NT50 was 0.1 µg/mL.

And the NT50 [21]?
The NT50 was 6.25 µg/mL.

And the NT50 [22]?
Its NT50 is 0.1 µg/mL.

What about the NT50 [23] of the same binder?
Its NT50 is 0.2 µg/mL.

B3: 1092C4 hmAb (antibody, V domains shown)
VH: B2 VH with Q1E, V79A, H100L
VL: B2 VL with F84L
Which results are given for B3?
ELISA area under curve (AUC) [10]: 9.8; ELISA area under curve (AUC) [11]: 34.4; ELISA area under curve (AUC) [12]: 27.3; ELISA area under curve (AUC) [13]: 32.3; ELISA area under curve (AUC) [14]: 31.4; ELISA area under curve (AUC) [15]: 33.7; NT50 [16]: 0.1 µg/mL; NT50 [17]: 3.13 µg/mL; NT50 [18]: 0.78 µg/mL; NT50 [19]: 6.25 µg/mL; NT50 [20]: 0.2 µg/mL; NT50 [21]: 6.25 µg/mL; NT50 [22]: 0.1 µg/mL; NT50 [23]: 1.6 µg/mL

B4: 1086G8 hmAb (antibody, V domains shown)
VH: EVQLLESGGGLVQPGGSLRLSCTASGFTFASDAMNWVRQAPGKGLEWVSAISGNGGITYFADSVKGRFTISRDNSKDTLYLQMDSLRAEDTAVYYCAKGVAPSHFNLLTGYYAGHYYFDFWGQGTLVTVSS
VL: EIVMTQSPATLSVSPGERATLSCRASQSVRHNLAWYQHKPGQPPRLLIYGASTRAASVPARFSGSGSGTDFTLTISSLQSEDFAVYYCQQYNHWPPYTFGQGTKLEIK
Which results are given for B4?
ELISA area under curve (AUC) [10]: 11.4; ELISA area under curve (AUC) [11]: 31.4; ELISA area under curve (AUC) [12]: 25.2; ELISA area under curve (AUC) [13]: 31.2; ELISA area under curve (AUC) [14]: 28; ELISA area under curve (AUC) [15]: 33.7; NT50 [16]: 0.4 µg/mL; NT50 [17]: 6.25 µg/mL; NT50 [18]: 12.5 µg/mL; NT50 [19]: 6.25 µg/mL; NT50 [20]: 0.4 µg/mL; NT50 [21]: 12.5 µg/mL; NT50 [22]: 0.2 µg/mL; NT50 [23]: 3.13 µg/mL

B5: 1122B9 hmAb (antibody, V domains shown)
VH: EVQLVESGGGLVQPGGSLRLSCAASGFTFSGYAMSWVRQAPGKGLECVSGIIGSGGSTYSADSVKGRFTISRDNSKNTLDLEMNSLRAEDTAVYYCAKHTKSHYYSGMGVWGQGTTVTVSS
VL: DIQMTQSPSSLSASVGDRVTITCQASQDISNYLNWYQQRPGKAPKLLIYDAANLETGVPSRFSGSGSATQFTFTISGLQPEDFATYYCQQYDNLPLTFGGGTKVEIK
Which results are given for B5?
ELISA area under curve (AUC) [1]: 25.2; ELISA area under curve (AUC) [2]: 35.2; ELISA area under curve (AUC) [3]: 35.3

From patent US20230107644A1
